Here are results for four molecules from PMC5788916, “The SAM domain of mouse SAMHD1 is critical for its activation and regulation” (Nature Communications, 2018).

The term stoichiometry N denotes a count of units in the complex or per binding partner.

Series [1] has as its target full-length mouse SAMHD1 (mSAMHD1), wild type (mouse) (UniProt Q60710). Briefly: not stated; up to 24 h of assembly with dGTP-α-S (Supplementary Fig. 1a).
Series [2] shares this target. Briefly: crystal structure; 1-Allo: co-crystallised with 4 mM dGTP-α-S; space group P2(1)2(1)2, 2 copies in the asymmetric unit; 3.4 Å.
Series [3] has the same target. Briefly: crystal structure; No-Allo (0-Allo): crystallised without nucleotides; space group C2, 4 copies in the asymmetric unit; 3.5 Å.
Series [4] has the same target. The series can be described thus: SEC; Superdex 200 10/300 GL; 2 mg/ml, 200 ul; 50 mM Tris-HCl pH 8.0, 150 mM NaCl, 5 mM MgCl2, 0.5 mM TCEP; no nucleotides added.
Series [5] shares this target. Briefly: AUC; sedimentation velocity, 0.8-1.3 mg/mL, 20 °C, 50 mM Tris-HCl pH 8.0, 150 mM NaCl, 5 mM MgCl2, 0.5 mM TCEP; with 150 uM nucleotides (dGTP-α-S).
For series [6] the target is unchanged. Described as above. The source holds these as a separate data set.
Series [7] shares this target. Briefly: AUC; sedimentation velocity, 0.8-1.3 mg/mL, 20 °C, 50 mM Tris-HCl pH 8.0, 150 mM NaCl, 5 mM MgCl2, 0.5 mM TCEP; protein alone, no nucleotides added.
Series [8] shares this target. The series can be described thus: SEC; Superdex 200 10/300 GL; 2 mg/ml, 200 ul; 50 mM Tris-HCl pH 8.0, 150 mM NaCl, 5 mM MgCl2, 0.5 mM TCEP; after addition of dGTP-α-S (methods: nucleotide 4 mM final); read-out: assembly of monomers or dimers into tetramers. On the technique in general: Size exclusion chromatography separates by hydrodynamic size, large species first.

The target is the same in series [9]. Described as above. The source holds these as a separate data set.
The target of series [10] is mouse SAMHD1 HD domain, isoform 2 (residues 145-651) (mouse). The series can be described thus: AUC; sedimentation velocity, 0.8-1.3 mg/mL, 20 °C, 50 mM Tris-HCl pH 8.0, 150 mM NaCl, 5 mM MgCl2, 0.5 mM TCEP; with 150 uM nucleotides (dGTP-α-S).
The target is the same in series [11]. Briefly: AUC; sedimentation velocity, 0.8-1.3 mg/mL, 20 °C, 50 mM Tris-HCl pH 8.0, 150 mM NaCl, 5 mM MgCl2, 0.5 mM TCEP; protein alone, no nucleotides added.
Series [12] shares this target. The series can be described thus: AUC; sedimentation velocity, 0.8-1.3 mg/mL, 20 °C, 50 mM Tris-HCl pH 8.0, 150 mM NaCl, 5 mM MgCl2, 0.5 mM TCEP; with 150 uM nucleotides (dGTP-α-S). The source holds these as a separate data set.
The target is the same in series [13]. The series can be described thus: SEC; Superdex 200 10/300 GL; 2 mg/ml, 200 ul; 50 mM Tris-HCl pH 8.0, 150 mM NaCl, 5 mM MgCl2, 0.5 mM TCEP; after addition of dGTP-α-S (methods: nucleotide 4 mM final); read-out: assembly of monomers or dimers into tetramers.
Series [14] deals with the molecule itself. Described as above.
Series [15] deals with the molecule itself. The series can be described thus: AUC; sedimentation velocity, 0.8-1.3 mg/mL, 20 °C, 50 mM Tris-HCl pH 8.0, 150 mM NaCl, 5 mM MgCl2, 0.5 mM TCEP; protein alone, no nucleotides added.

“And” between values parts separate entries of the source, which are not always exact repeats. Equal values may be shown once.

Regarding “full-length mouse SAMHD1 (mSAMHD1), wild type (from UniProt Q60710 1-658) (enzyme)”, the stoichiometry N in [1] was 4; in series [2] it was 4; in [3] it was 4; in [4], 2 and 4; in series [5], 2; in series [6], 4. The stoichiometry N in series [7] was 2 and 4; in series [8], 2; in [9], 4.

In the case of “mouse SAMHD1 HD domain, isoform 2 (residues 145-651) (domain or fragment)”, the stoichiometry N in series [10] was 4; in series [11], 2; in series [12], 2; in series [13], 4.

B1: human SAMHD1 L77F/C80F/H111R triple mutant (FFR) (enzyme, UniProt Q9Y3Z3 1-626, looked up)
chain: MQRADSEQPSKRPRCDDSPRTPSNTPSAEADWSPGLELHPDYKTWGPEQVCSFLRRGGFEEPVLLKNIRENEITGAFLPFLDESRFENLGVSSLGERKKLLSYIQRLVQIRVDTMKVINDPIHGHIELHPLLVRIIDTPQFQRLRYIKQLGGGYYVFPGASHNRFEHSLGVGYLAGCLVHALGEKQPELQISERDVLCVQIAGLCHDLGHGPFSHMFDGRFIPLARPEVKWTHEQGSVMMFEHLINSNGIKPVMEQYGLIPEEDICFIKEQIVGPLESPVEDSLWPYKGRPENKSFLYEIVSNKRNGIDVDKWDYFARDCHHLGIQNNFDYKRFIKFARVCEVDNELRICARDKEVGNLYDMFHTRNSLHRRAYQHKVGNIIDTMITDAFLKADDYIEITGAGGKKYRISTAIDDMEAYTKLTDNIFLEILYSTDPKLKDAREILKQIEYRNLFKYVGETQPTGQIKIKREDYESLPKEVASAKPKVLLDVKLKAEDFIVDVINMDYGMQEKNPIDHVSFYCKTAPNRAIRITKNQVSQLLPEKFAEQLIRVYCKKVDRKSLYAARQYFVQWCADRNFTKPQDGDVIAPLITPQKKEWNDSTSVQNPTRLREASKSRVQLFKDDPM
notes: human SAMHD1 with three SAM domain residues changed to their mouse counterparts; compared with full-length WT hSAMHD1; also called FFR mutant; source: purified
For the molecule B1, the “stoichiometry N” value in [14] amounted to 4.

B2: mouse SAMHD1 HD domain, isoform 1 (residues 145-658) (domain or fragment, UniProt Q60710 145-658, looked up)
chain: DLMKVFNDPIHGHIEFHPLLIRIIDTPQFQRLRYIKQLGGGYYVFPGASHNRFEHSLGVGYLAGCLVRALAEKQPELQISERDILCVQIAGLCHDLGHGPFSHMFDGRFIPRARPEKKWKHEQGSIEMFEHLVNSNELKLVMKNYGLVPEEDITFIKEQIMGPPITPVKDSLWPYKGRPATKSFLYEIVSNKRNGIDVDKWDYFARDCHHLGIQNNFDYKRFIKFARICEVEYKVKEDKTYIRKVKHICSREKEVGNLYDMFHTRNCLHRRAYQHKISNLIDIMITDAFLKADPYVEITGTAGKKFRISTAIDDMEAFTKLTDNIFLEVLHSTDPQLSEAQSILRNIECRNLYKYLGETQPKREKIRKEEYERLPQEVAKAKPEKAPDVELKAEDFIVDVINVDYGMEDKNPIDRVHFYCKSNSKQAVRINKEQVSQLLPEKFAEQLIRVYCKKKDGKSLDAAGKHFVQWCALRDFTKPQDGDIIAPLITPLKWNNKTSSCLQEVSKVKTCLKF
notes: mouse SAMHD1 isoform 1, HD domain without the SAM domain, residues 145-658; The text speaks of 'mHD' and gives limits for both isoforms; source: E. coli BL21 (DE3), purified (Ni-NTA, size-exclusion chromatography)
With B2, the “stoichiometry N” value in series [15] turned out to be 2; in series [14], 4.
